Laboratory results reported in patent US7575883.

Target: chemically acetylated cytochrome c

B1: cell derived SIRT3-GFP (pull down from 293T cell extracts) (protein)
chain: MAFWGWRAAAALRLWGRVVERVEAGGGVGPFQACGCRLVLGGRDDVSAGLRGSHGARGEPLDPARPLQRPPRPEVPRAFRRQPRAAAPSFFFSSIKGGRRSISFSVGASSVVGSGGSSDKGKLSLQDVAELIRARACQRVVVMVGAGISTPSGIPDFRSPGSGLYSNLQQYDLPYPEAIFELPFFFHNPKPFFTLAKELYPGNYKPNVTHYFLRLLHDKGLLLRLYTQNIDGLERVSGIPASKLVEAHGTFASATCTVCQRPFPGEDIRADVMADRVPRCPVCTGVVKPDIVFFGEPLPQRFLLHVVDFPMADLLLILGTSLEVEPFASLTEAVRSSVPRLLINRDLVGPLAWHPRSRDVAQLGDVVHGVESLVELLGWTEEMRDLVQRETGKLDGPDK
deacetylation activity, 14C-nicotinamide release assay in vitro: cell derived SIRT3 deacetylates cytochrome c

B2: recombinant GST-SIRT2 (protein)
chain: MAEPDPSHPLETQAGKVQEAQDSDSDSEGGAAGGEADMDFLRNLFSQTLSLGSQKERLLDELTLEGVARYMQSERCRRVICLVGAGISTSAGIPDFRSPSTGLYDNLEKYHLPYPEAIFEISYFKKHPEPFFALAKELYPGQFKPTICHYFMRLLKDKGLLLRCYTQNIDTLERIAGLEQEDLVEAHGTFYTSHCVSASCRHEYPLSWMKEKIFSEVTPKCEDCQSLVKPDIVFFGESLPARFFSCMQSDFLKVDLLLVMGTSLQVQPFASLISKAPLSTPRLLINKEKAGQSDPFLGMIMGLGGGMDFDSKKAYRDVAWLGECDQGCLALAELLGWKKELEDLVRREHASIDAQSGAGVPNPSTSASPKKSPPPAKDEARTTEREKPQ
deacetylation activity, tritiated acetate release assay in vitro, with and without NAD: recombinant GST-SIRT2 deacetylates cytochrome c in a NAD dependent manner

B3: recombinant GST-SIRT3 (fragment of human SIRT3 lacking the first 100 amino acids of the N-terminus) (protein)
chain: SISFSVGASSVVGSGGSSDKGKLSLQDVAELIRARACQRVVVMVGAGISTPSGIPDFRSPGSGLYSNLQQYDLPYPEAIFELPFFFHNPKPFFTLAKELYPGNYKPNVTHYFLRLLHDKGLLLRLYTQNIDGLERVSGIPASKLVEAHGTFASATCTVCQRPFPGEDIRADVMADRVPRCPVCTGVVKPDIVFFGEPLPQRFLLHVVDFPMADLLLILGTSLEVEPFASLTEAVRSSVPRLLINRDLVGPLAWHPRSRDVAQLGDVVHGVESLVELLGWTEEMRDLVQRETGKLDGPDK
deacetylation activity, tritiated acetate release assay in vitro, with and without NAD: recombinant GST-SIRT3 deacetylates cytochrome c in a NAD dependent manner
